Assay results reported in patent US20240272171A1, “Methods for Identification of Exchangeable MHC Binding Peptides and Methods of Use Thereof” (PhenomeX Inc., priority 2020, published 2024).

Target: HLA-A*02:01 MHC Class I complex (recombinant, biotinylated) (human)
Experiment: displacement of the FITC-labelled in-place peptide from 1 uM HLA-A*02:01; competitor: incoming peptide [..] at 20 uM with 10 mM GlyCha, 4 h at room temperature; FITC on streptavidin capture beads by flow cytometry

exchange efficiency: 1
Binder: GMGQKDSYV (modifications not checked) [EP3 … (SEQ ID NO: 1), FITC-labelled in-place peptide GMGQ{Lys(FITC)}DSYV]
